Experimental findings from article PMC3316568, “Crystal Structure of Streptococcus pyogenes Csn2 Reveals Calcium-Dependent Conformational Changes in Its Tertiary and Quaternary Structure” (PLoS ONE, 2012) are described below.

In data set [1] the target is T1, Csn2 (Streptococcus pyogenes, UniProt Q99ZV9 1-220).
T1 sequence: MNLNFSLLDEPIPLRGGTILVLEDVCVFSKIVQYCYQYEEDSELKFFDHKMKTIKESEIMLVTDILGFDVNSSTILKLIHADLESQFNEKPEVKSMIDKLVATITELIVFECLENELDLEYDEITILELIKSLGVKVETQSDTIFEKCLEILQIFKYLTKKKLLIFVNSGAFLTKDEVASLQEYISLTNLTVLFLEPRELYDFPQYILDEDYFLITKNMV
Description: EMSA; no added metal; DNA:Csn2 tetramer 1:0, 1:1, 1:10; non-specific binding; 50 mM NaCl, 20 mM HEPES pH 7.5, room temperature, 20 min; 150 ng DNA; 10% native Tris-glycine PAGE, ethidium bromide stain. The conditions noted are these: protein: recombinant; tags: (His)6-MBP tag removed by TEV protease; chain copies: 4. For orientation: Mobility shift assays separate free from complexed probe on a gel.

For data set [2], the target named is T1, Csn2. Description: EMSA; no added metal; DNA:Csn2 tetramer 1:0, 1:1, 1:10; 50 mM NaCl, 20 mM HEPES pH 7.5, room temperature, 20 min; 150 ng DNA; 10% native Tris-glycine PAGE, ethidium bromide stain. To be noted: protein: recombinant; tags: (His)6-MBP tag removed by TEV protease; chain copies: 4.
Data set [3] deals with the molecule itself. Description: crystal structure; selenomethionyl Csn2, 2.2 Å, MAD; crystals at 20°C from 150 mM KCl, 4 mM DTT, 100 mM HEPES pH 7.0 with 2.3 M sodium acetate pH 7.0; no calcium added; dimer in the asymmetric unit, tetramer with the symmetry-related dimer.
Data set [4] concerns the molecule itself. Description: SEC; analytical, Superdex 200 10/300 GL; 200 mM NaCl, 2 mM DTT, 10 mM Tris-HCl pH 8.0; 0.5 mL of 1.0 mg/mL Csn2; no calcium added. On the technique in general: Size exclusion chromatography separates by hydrodynamic size, large species first.

B1: control DNA 90 bp (ERD1 promoter) (dsDNA)
DNA 1: TCTTAAAACTCCACAAACATTACGGCAGTTAGAATTTAAATTTATCTTGGAATATTGTTTGTATATTATTAACAAATGTAAATTGGTGTA
DNA 2: TACACCAATTTACATTTGTTAATAATATACAAACAATATTCCAAGATAAATTTAAATTCTAACTGCCGTAATGTTTGTGGAGTTTTAAGA
As to B1, the binding result in data set [1] was “binds”.

B2: S. pyogenes CRISPR DNA 90 bp (dsDNA)
DNA 1: TTTTAGACAAAAATAGTCTACGAGGTTTTAGAGCTATGCTGTTTTGAATGGTCCCAAAACTGCGCTGGTTGATTTCTTCTTGCGCTTTTT
DNA 2: AAAAAGCGCAAGAAGAAATCAACCAGCGCAGTTTTGGGACCATTCAAAACAGCATAGCTCTAAAACCTCGTAGACTATTTTTGTCTAAAA
B2: the binding result in data set [2] is on record as “binds”.

B3: Selenomethionyl Streptococcus pyogenes Csn2 (natural protein)
chain: MNLNFSLLDEPIPLRGGTILVLEDVCVFSKIVQYCYQYEEDSELKFFDHKMKTIKESEIMLVTDILGFDVNSSTILKLIHADLESQFNEKPEVKSMIDKLVATITELIVFECLENELDLEYDEITILELIKSLGVKVETQSDTIFEKCLEILQIFKYLTKKKLLIFVNSGAFLTKDEVASLQEYISLTNLTVLFLEPRELYDFPQYILDEDYFLITKNMV
modifications: selenomethionine (SeMet labelling)
notes: Csn2, CRISPR-associated protein of the Nmeni subtype (type II-A), Streptococcus pyogenes; same construct as m1, expressed as selenomethionyl protein; residues up to 220 are named for the structure; Same construct as m1 with selenomethionine; Two monomers (A, B) in the asymmetric unit; the tetramer is formed with a symmetry-related dimer; also called SeMet Csn2; selenomethionyl S. pyogenes Csn2; …
As to B3, in data set [3], the “stoichiometry N” value was 4.

B4: Streptococcus pyogenes Csn2 (native) (natural protein)
chain: MNLNFSLLDEPIPLRGGTILVLEDVCVFSKIVQYCYQYEEDSELKFFDHKMKTIKESEIMLVTDILGFDVNSSTILKLIHADLESQFNEKPEVKSMIDKLVATITELIVFECLENELDLEYDEITILELIKSLGVKVETQSDTIFEKCLEILQIFKYLTKKKLLIFVNSGAFLTKDEVASLQEYISLTNLTVLFLEPRELYDFPQYILDEDYFLITKNMV
notes: Csn2, CRISPR-associated protein of the Nmeni subtype (type II-A), Streptococcus pyogenes; the csn2 gene cloned into pHMGWA; monomeric molecular weight printed as 26.0 kDa; residues up to 220 are named for the structure; also called Native Csn2; source: E. coli BL21 (DE3), purified (HisTrap HP, TEV cleavage, second HisTrap HP, Superdex200); not shown: His6, N-terminal, cleaved; MBP, N-terminal, …
Take B4: the “stoichiometry N” value in data set [4] amounted to 4.

By stoichiometry N is commonly meant a count of units in the complex or per binding partner.
